According to US20100234450, “Molecular targeting agents” (published 2010):

Tests used:
[1] = biological target: T1, PSMA (prostate-specific membrane antigen) (Homo sapiens, UniProt Q04609 Q04609:1-750); assay: cell binding to PSMA-positive 22Rv1(1.7) cells; settings: tags: none, endogenous on 22Rv1(1.7) and LNCaP prostate cancer cells, chain copies: 2
[2] = biological target: T1, PSMA (prostate-specific membrane …); assay: cell binding to PSMA-positive 22Rv1(1.7) cells; Bmax much lower on PSMA-negative 22Rv1(wmr) cells; settings: tags: none; endogenous on 22Rv1(1.7) and LNCaP prostate cancer cells; chain copies: 2; label: 111In

T1 sequence (Q04609 whole entry, one chain of several): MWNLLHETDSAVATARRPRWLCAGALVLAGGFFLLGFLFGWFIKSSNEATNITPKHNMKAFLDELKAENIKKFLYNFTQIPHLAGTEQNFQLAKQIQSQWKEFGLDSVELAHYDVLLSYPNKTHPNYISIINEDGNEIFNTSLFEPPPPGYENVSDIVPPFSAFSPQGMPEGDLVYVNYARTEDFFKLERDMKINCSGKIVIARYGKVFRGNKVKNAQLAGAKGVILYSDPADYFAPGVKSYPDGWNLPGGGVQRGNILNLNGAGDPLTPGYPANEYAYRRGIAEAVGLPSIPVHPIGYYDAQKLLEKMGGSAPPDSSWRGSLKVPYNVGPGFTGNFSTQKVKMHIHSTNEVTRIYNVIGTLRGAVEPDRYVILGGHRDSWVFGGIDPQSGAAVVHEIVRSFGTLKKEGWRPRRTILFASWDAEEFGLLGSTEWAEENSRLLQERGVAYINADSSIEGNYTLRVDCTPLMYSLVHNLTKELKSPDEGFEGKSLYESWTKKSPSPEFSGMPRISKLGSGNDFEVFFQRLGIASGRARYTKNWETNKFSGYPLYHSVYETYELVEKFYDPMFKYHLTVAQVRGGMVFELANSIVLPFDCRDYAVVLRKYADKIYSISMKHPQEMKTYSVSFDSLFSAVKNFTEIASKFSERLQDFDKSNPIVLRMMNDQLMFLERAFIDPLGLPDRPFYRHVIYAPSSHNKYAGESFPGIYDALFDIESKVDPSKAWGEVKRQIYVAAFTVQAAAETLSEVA

Binder: GGGAGGACGAUGCGGAUCAGCCAUGUUUACGUCACUCCU (ssRNA) [A10-3.2 (32P)]
- Kd ([1]; label: 5'-32P): 106 nM

Binder: GGGAGGACGAUGCGGAUCAGCCAUGUUUACGUCACUCCU (ssRNA, 5'-DOTA chelator via linker) [111In-DOTA-A10-3.2]
- Kd [2]: 119 nM

Binder: GGGAGGACGAUGCGGAUCAGCCAUGUUUACGUCACUCCU (ssRNA, 5'-NOTA chelator via linker) [64Cu-NOTA-A10-3.2]
- Kd ([1]; label: 64Cu): 131 nM
